Reference: patent publication US20210292393A1
Where a chain is given by its changes, count along the chain named. Several values for one entry are separate records, joined by “and”; a condition that tells them apart may be missing. Identical values can stand only once.

B1: antibody 362 (antibody, V domains shown)
VH: QVQLVESGGGVVQPGRSLRLSCAASGFNLSNYAMHWVRQASGKGLEWVSLISYDGSVKYYTDSVKGRFTVSGDNSKNTLFLQMNSLRPDDSALYYCVRGGVSGPNSFDMWGQGTTVTVSS
VL: DVVMTQSPLSLPVTLGQPATISCRSSQSLVYSDGNTYVNWFQQRPGQSPRRLIYQVSIRASGVPDRFSGSGSGTDFALKISRVEAEDVGVYYCMQGTHWPVTFGQGTKVEIK
B2: antibody 315 (antibody, V domains shown)
VH: QVQLVQSGSELKKPGASVKLSCQASGYSFTNHAMNWVRQAPGQGLEWMGWINTNTGNPTYAQGFTGRFVFSLDTSVSTTYLHISSLKAEDTAVYYCARASARPGVATNLDFWGQGTLVVVSS
VL: DIQMTQSPSSLSASVGDRVTITCRASQNIDNYLNWYQQKPGKAPKLLIYAASRLHSGVPSRFSGSGSGTDFTLIISSLQPEDLATYYCQQSYSNPLTFGPGTKVDIR
B3: antibody 337 (antibody, V domains shown)
VH: QVQLVESGGGVVQPGRSLRLSCAASGFTFSSYGMHWVRQAPGKGLEWVAIIWYDGSNKYYADSVKGRFTISRDNSKNTLYLQMNSLRAEDTAVYYCAKDTGGYCSGGSCYPESYFDYWGQGTLVTVSS
VL: SYVLTQPPSVSVAPGKTARITCGGNNIGSKSVHWYQQKPGQAPVLVIYYDSDRPSGIPERFSGSNSGNTATLTINRVEAGDEADYYCQVWDGSSDHLYVFGTGTKVTVL
B4: antibody 269 (antibody, V domains shown)
VH: QLQLQESGPGLVKPSETLSLTCTVSGGSISSSSYYWGWIRQPPGKGLEWIGNIYYSGSTYYNPSLKSRVTISVDTSKNQFSLKLSSVTAADTAVYYCAGEELDIVATIYSSRYYYYGMDVWGQGTTVTVSS
VL: QSALTQPASVSGSPGQSITISCTGTSSDVGGYNYVSWYQQHPGKAPKLMIYEVSNRPSGVSNRFSGSKSGNTASLTISGLQAEDEADYYCSSYTSTSTLVFGGGTKLTVL
B5: antibody 279 (antibody, V domains shown)
VH: EVQLLESGGGLVQPGGSLRLSCAASGFTFSSYAMSWVRQAPGKGLEWVSTISGSGGNTYYADSVKGRFTISRDNSKNTLYLQMNSLRAEDTAVYYCAKDLFQGLYYGSGEFDYWGQGTLVTVSS
VL: B4 VL with G31A, E52G, T96S, L99R, G103T, L107V
B6: antibody 392 (antibody, V domains shown)
VH: QVQLQESGPGLVKPSGTLSLTCAVSGGSISSSNWWSWVRQPPGKGLEWIGEIYHSGSTNYNPSLKSRVTISVDKSKNQFSLKLSSVTAADTAVYYCARGWRATLYGMDVWGQGTTVTVSS
VL: B4 VL with G31S, Y34L, N55K, S91C, T94A, S95G, T96S, L99W
B7: antibody 390 (antibody, V domains shown)
VH: EVQLVESGGGLIQPGGSLRLSCAASGFTVSSNYMSWVRQAPGKGLEWVSIIYSGGSTYYADSVKGRFTISRDNSKNTLYLQMNSLRAEDSAVYSCATTMVRGLIISYYYGMDVWGQGTTVTVSS
VL: B4 VL with T96S
B8: antibody 396 (antibody, V domains shown)
VH: QVQLQQWGAGLLKPSETLSLTCAVYGGSFSGYYWSWIRQPPGKGLEWIGEIIHSGSTNYNPSLKSRVTISVDTSKNQFSLKLSSVTAADTAVYYSARRTGLLWFREGSYYFDYWGQGTLVTVSS
VL: DIQMTQSPSSLSASVGDRVTITCRASQGIRNDLGWYQQKPGKAPKRLIYAASSLQSGVPSRFSGSGSGTEFTLTISSLQPEDFATYYCLQHNSYPLTFGGGTKVEIK
B9: antibody 416 (antibody, V domains shown)
VH: EVQLVESGGGLVQPGRSLRLSCAASGFTFDDYAMHWVRQAPGKGLEWVSGISWNSGSIGYADSVKGRFTISRDNAKNSLYLQMNSLRAEDTALYYCAKDLAWLSGGMDVWGQGTTVTVSS
VL: not shown
B10: antibody 444 (antibody, V domains shown)
VH: QVQLVESGGGLVKPGGSLRLSCAASGFTFSDYYMSWIRQAPGKGLEWVSYISSSGSTIYYADSVKGRFTISRDNAKNSLYLQMNSLRAEDTAVYYCARERKVVVAATRNYYYYYGMDVWGQGTTVTVSS
VL: SYELTQPPSVSVSPGQTARITCSGDALPKQYAYWYQQKPGQAPVLVIYKDSERPSGIPERFSGSSSGTTVTLTISGVQAEDEADYYCQSADSSTWVFGGGTKLTVL
B11: antibody 413 (antibody, V domains shown)
VH: EVQLVESGGGLIQPGGSLRLSCAASGFTVSGNYMNWVRQAPGKGLEWVSVIYSGGSTYYADSVKGRFTISRANSKNTLYLQMNSLRAEDTAVYYCASTSLVRGLIILYYYGMDVWGQGTTVTVSS
VL: B4 VL with T96S
B12: antibody 544 (antibody, V domains shown)
VH: QVQLQQWGAGLLKPSETLSLTCAVYGGSFSGYYWSWIRQPPGKGLEWIGEINHSGSTNYNPSLKSRVTISVDTSKNQFSLKLSSVTAADTAVYYCARGFKWFGELLFGAQGTLVTVSS
VL: not shown
B13: antibody 538 (antibody, V domains shown)
VH: QLQLQESGPGLVKPSETLSLTCTVSGGSISSSSYYWGWIRQPPGKGLEWIGSINYSGSTYYNPSLKSRVTISVDTSKNQFSLKLSSVTAADTAVYYCARYHDYGDDYWGQGTLVTVSS
VL: QLVLTQSPSASASLGASVKLTCTLSSGHSRYAIAWHQQQPEKGPRYLMKLNSDGSHSKGDGIPDRFSGSSSGAERYLTISSLQSEDEADYYCQTWGTGIQVFGGGTKLTVL
B14: anti-SARS-CoV-2 antibody 485 (antibody, V domains shown)
VH: QVQLQESGPGLVKPSGTLSLTCAVSGASISSSNWWSWVRQPPGKGLEWIGEIYHSGSTNYNPSLKSRVTISVDKSKNQFSLKLSSVTAADTAVYYCARRSYYGSGSYYPFDYWGQGTLVTVSS
VL: QSALTQPASVSGSPGQSITISCTGTSSDVGSYNLVSWYQQHPGKAPKLMIYEGRKRPSGVSNRFSGSKSGNTASLTISGLQAEDEADYYCCSYAGSSTYVFGTGTKVTVL
B15: antibody 389 (antibody, V domains shown)
VH: QVQLVESGGGVVQPGRSLRLSCAASGFTFSSYAMHWVRQAPGKGLEWVAVISYDGSNKYYADSVKGRFTISRDNSKNTLYLQMNSLRAEDTAVYYCASQGRMYVRGVDYGVYWGQGTLVTVSS
VL: NFMLTQPHSVSESPGKTVTISCTGSSGSIASNYVQWYQQRPGSAPTTVIYEDNQRPSGVPDRFSGSIDSSSNSASLTISGLKTEDEADYYCQSYDSSKISHAVFGGGTQLTVL
B16: antibody 325 (antibody, V domains shown)
VH: QVQLQESGPGLVKPSQTLSLTCTVSGGSISGGGYYWSWIRQHPGKGLEWIGYIYYSGSTYYNPSLQSRVTISVDTSKNQFSLKLSSVTAADTAVYYCARVGTSSVWYFDYWGQGTLVTVSS
VL: QSALTQPRSVSGSPGQSVTISCTGTSSDVGGYNYVSWYQQHPGKAPKLMIYDVTKRPSGVPDRFSGSKSGNTASLTISGLQAEDEADYYCSSYAGSWVFGGGTKLTVL
B17: antibody 322 (antibody, V domains shown)
VH: EVQLVESGGGLVQPGGSLRLSCAASGFTFSSYWMSWVRQAPGKGLEWVANIKQDGSEKYYVDSVKGRFTISRDNAKNSLYLQMNSLRAEDTAVYYCARDEDVAAALDYWGQGTLVTVSS
VL: SYVLTQPPSVSVAPGKTARITCGGNNIGSKSVHWYQQKPGQAPVLVIYYDSDRPSGIPERFSGSNSGNTATLTISRVEAGDEADYYCQVWDSSSDHPERVFGGGTKLTVL

Molecular target: T1, SARS-CoV-2 full length spike protein (wild type) (SARS-CoV-2), P0DTC2
Conditions: remark: other sources report otherwise

Row | Binder | median fluorescence intensity fold over isotype (fold over isotype control) | binding signal, bead assay (fold over isotype)
1 | B1 | 503 | –
2 | B2 | 592 | –
3 | B3 | 756 | –
4 | B4 | – | 480 and 191 and 188
5 | B5 | – | 3.09 and 1.36 and 1.11

Molecular target: SARS-CoV-2 full length spike protein (wild type), conjugated to beads (SARS-CoV-2), P0DTC2
Conditions: remark: other sources report otherwise

Row | Binder | binding signal, bead assay (fold over isotype)
6 | B6 | 509
7 | B7 | 637 and 341 and 318
8 | B8 | 553

Molecular target: SARS-CoV-2 full length spike protein (wild-type) (SARS-CoV-2), P0DTC2
Conditions: remark: other sources report otherwise

Row | Binder | Binding to Wild-Type SARS-CoV-2 (Bead Assay)
9 | B9 | 110
10 | B10 | 0.97 and 0.91 and 0.9
11 | B11 | 969 and 367 and 416

Molecular target: SARS-CoV-2 full length spike protein (wild-type), conjugated to optically encoded beads (SARS-CoV-2), P0DTC2
Conditions: remark: other sources report otherwise

Row | Binder | median fluorescence fold over isotype (fold over isotype)
12 | B12 | 639
13 | B13 | 607

Molecular target: SARS-CoV-2 spike (S) protein, full length, wild type (SARS-CoV-2), P0DTC2
Conditions: remark: other sources report otherwise

Row | Binder | median fluorescence fold over isotype (fold over isotype)
14 | B14 | 510

Molecular target: T1, SARS-CoV-2 full length spike protein …
Conditions: remark: other sources report otherwise
Remark: another data set of the same source

Row | Binder | median fluorescence intensity, fold over isotype control (fold over isotype)
15 | B2 | 8.85
16 | B4 | 13.3 and 9.09
17 | B5 | 8.59 and 3.84

Molecular target: SARS-CoV-2 full length spike protein, wild type, expressed on the surface of CHO cells (SARS-CoV-2), P0DTC2
Conditions: remark: other sources report otherwise

Row | Binder | median fluorescence fold over isotype control (fold over isotype)
18 | B12 | 2.48
19 | B13 | 1.96

Molecular target: SARS-CoV-2 full length spike protein, wild type, expressed on the surface of transiently transfected CHO cells (SARS-CoV-2), P0DTC2
Conditions: remark: other sources report otherwise

Row | Binder | median fluorescence fold over isotype control (fold over isotype)
20 | B15 | 0.72
21 | B11 | 1.11
22 | B7 | 0.73

Molecular target: SARS-CoV-2 spike (S) protein, full length, wild type, expressed on the surface of CHO cells (SARS-CoV-2), P0DTC2
Conditions: remark: other sources report otherwise

Row | Binder | median fluorescence fold over isotype (fold over isotype)
23 | B1 | 9.45
24 | B16 | 1.14 and 1.08
25 | B17 | 4.94 and 1.65
26 | B3 | 2.08

Molecular target: SARS-CoV-2 spike (S) protein (SARS-CoV-2), P0DTC2
Conditions: remark: other sources report otherwise

Row | Binder | Kd [nM] | koff [s⁻¹] | kon [M⁻¹ s⁻¹]
27 | B16 | 7.36 | 0.000154 | 20900
28 | B17 | 21.1 | 0.000401 | 19000
29 | B4 | 7.29 | 0.000444 | 60900
30 | B5 | 52.3 | 0.00195 | 37300

Molecular target: SARS-CoV-2 spike protein (SARS-CoV-2), P0DTC2
Conditions: remark: other sources report otherwise

Row | Binder | Kd [nM] | koff [s⁻¹] | kon [M⁻¹ s⁻¹]
31 | B15 | < 0.0222 | < 1e-05 | 450000
32 | B10 | 27.2 | 0.000717 | 26400
33 | B11 | < 0.0338 | < 1e-05 | 296000
34 | B7 | 0.153 | 1.97e-05 | 129000
